From the DeepSol protein solubility set come the findings set out here.

A short description of the series: soluble on expression in E. coli; label from the status in PepcDB or PDB records.
“MAHHHHHHMVSMIVAGATGAIGRTVVQYAIQQPSIDRVVALTRFRNTAVSNYENLFGIIVAGEAGNTDSRGDGANSKRKKGSGSPAGTVTATPAEAAKIRPITMDWEEFTQLWVAKRSSTSAAASGADNCAAGAAATAITDPTERYRGIFGGHTYAAMCLGTTRKDAGSAKSFTRCDYDYVMAFTEAVLAYSAPAGLSPAKAFVHHIGDGGASKQVHVQEGMGKEVDVLAAMNANAAQSSGTLRVFCQVSSSNASSSSWFLYMQTKGIADESTVERVHRHNKCATAAAALSPVNLLLLQPGLLERHGKTRATEKFAKLIMSSIPVETCGAAIVSACKSLPIQHSVQRAETTSAAEQAKHDEVEGAQVEKENNTVAAGVRKTPLGKPYVATKALCKAGMPPNEPLPYIYAANNAVITDLASRLTA”: the “soluble on expression in E. coli” value is given as “not soluble”.

Take “MFKHDCQFEDLRIIAQRVNPLDPTWNEWTLVACQKCKMLKEWQHHSEEQMHGGDLHITALPTHDYLHHIYGIVESDVDLILTHQKKARRYNRYTNAVEEHDV”: the “soluble on expression in E. coli” value is given as “not soluble”. In the case of “MGSDKIHHHHHHMDLTHIHPEFRHILGMSDKDRMAFLDEPRWIGYAQANRLLDNLRSLMEKPVRPRMPNLLIVGDSNNGKTTVIRRFQKLHGEGYVNEDAEPVKPVIVSEAPPSADEKGLYIAILERFWTPYRATDSASKLRYQVVHLMRDCHVRILVIDEFHSLLTGTVTKQREVMNAIKLLCNELAIPIVGVGIREAVRVLHTDPQHASRFDVVTLPPWELNPEFQQLVASFERVLPLKKPSLLHQSETVSLLFAISEGNLGNLHRLLVECAVEAIKTGTEKIDKSIIEGKQWLRPTHGIRELV”, the “soluble on expression in E. coli” value is “not soluble”. Then “AYTTFSQTKNDQLKEPMFFGQPVNVARYDQQKYDIFEKLIEKQLSFFWRPEEVDVSRDRIDYQALPEHEKHIFISNLKYQTLLDSIQGRSPNVALLPLISIPELETWVETWAFSETIHSRSFTHIIRNIVNDPSVVFDDIVTNEQIQKRAEGISSYYDELIEMTSYWHLLGEGTHTVNGKTVTVSLRELKKKLYLCLMSVNALEAIRAYVSFACSFAFAERELMEGNAKIIRLIARDEALHLTGTQHMLNLLRSGADDPEMAEIAEECKQECYDLFVQAAQQEKDWADYLFRDGSMIGLNKDILCQYVEYITNIRMQAVGLDLPFQTRSNPIPWINTWLVSDNVQVAPQEVEVSSYLVGQIDSEVDTDDLSNFQL”, with “soluble”; and “SAEAEGLADWMSKLNETFTTVPLCYIAIPGSHDAMAYSLDMDSPLLEPDSLITMDLICCGCCRSIVKNWSITQDKTISEQLDAGMRYFDLRVAGKPGSSDFFFYHGLYTTITVKEAMEEVDTWLGKHSKEVVILAFSHFKEMSTEQHTKLMTFLKDHFKAKLCPDDGMPSLKDCWDKAYQVILSYDDRNRKQDRVLWPGIKYWWANNSDPNEAILFLDNKKQSGRPKGFFVAGLNLTFYGCSIFSNLTASLKEKTVTAYPLLLDWVKKQRPGSDTQSINIIAGDFFDVNSFAQDIIQLNDAKTN”, with “soluble”. Then “QVQLQESGPGLVKPSETLSLTCTVSGASISSYYWSWIRQPPGKGLEWIGYIGGEGSTNYNPSLKSRVTISVDTSKNQFSLKLRSVTAADTAVYYCARERLGIGDYWGQGTLVTVSSASTKGPSVFPLAPSSKSTSGGTAALGCLVKDYFPEPVTVSWNSGALTSGVHTFPAVLQSSGLYSLSSVVTVPSSSLGTQTYICNVNHKPSNTKVDKKVEPK”, with “soluble”. Consider “MAQWSTMSTADRDFVVRFPTGTSDPLSDAEIQQYREEIDRLDKEILAAVKRRTEISRAIGKTRMGSGGTRLVHTREVAIINQFREEIGEEGPALAGILLRMGRGRLGEAR”, for which the “soluble on expression in E. coli” value is on record as “not soluble”. Then “MGKTNLAPGFRFHPTDVELVRYYLKRKVMGKKFQVDAIAEVDIYKFEPPDLPDKSCLGTGDLKWYFFCPREKKYPKGGKANRSTECGYWKTTGRDRDVSYNDEVTGKIRTLIYHYGKIPRGDRTDWVIHEYRLEDKVLAQKNVPQDTYVLCVLFKKNGLGPRHGSQYGAPFKEEDWSDKEEEYTQNHLVAGPSKETSLAAKASHSYAPKDGLTGVISESCVSDVPPLTATVLPPLTSDVIAYNPFSSSPLLEVPQVSLDGGELNSMLDLFSVDNDDCLLFDDFDYHNEVRHPDGFVNKEAPVFLGDGNFSGMFDLSNDQVVELQDLIQSPTPHPPSPPAQASIPDDSRSNGQTKDD”, with “soluble”; and “MERETPKTPTPTPYTNIYAALNNKKTNDEVASKVTEELNKLKIAEEKDNKIVSREKPEMMSLNTLVEMCSAGEKPTKGKSEKDIRKKKAPVLVDDNQSYVMIGPPSEPVEPPATLSTETSKTNAIEESTVKRSEALSAYIGVATLNDAENHLTRRGEFALYHLFNPNGRLDTITEKLPLMIVYRTTTKKNRHYSIRTTCDQQFFVDCGYPNVRKHYSLNHLVKFYKVRILLPDTIQKQQLTDILQILKQFQTSATCEINPYDTSADSFSWWLE”, with “soluble”; and “MAHHHHHHMSMHSVEGALCSCSMCKLTCHTASVYANQRRASKHVMLARPSPFYAETGGLPPEVPQLAPPPERLVVCPVFEEYGFCPFGRICFLPHSGEKTPLVERKGTSREELERLREKARLQEEEELWSCDVCGFDGIDENTQGRVGEMYYYRNCPRCSLMCYFPHIAYLVDAIFDASGDDYQIFKDEIDRCRRELPDILKVPLTYEAHRIASTAFAWSLVSPKHVKDALDAAYRALPEMSCIVSVGSGVGYVEHIFNRVANGVPAAPRDPDPALGISSFEGVHACFYPKKKLPIYAFDEVALNCPYSVCVSLGGPVALLSLQCPTSVLLLSWPPFGSPKEEQSSMAFEALEYFTQAGGKVVIYIGDVASTGDWRFHELLYTHYKLVKDYTVRREVRRWSPQDMGLVYAGNDTIGVYKLRSERLPSPQWQWDGRSS”, with “not soluble”. Then “VPGTVEVVFDKPEYRTGEEASALITFPEPVEDALLSLERDKVEATALLSKGADWLRLEKLNPTQYRVWIPVREEFSPNLTFSVLYTKGGDYSFQNAGIKVGMPQVEIDIATDKERYEPGETVTVTLATRFAGKPVSSHLTVSVVDEMVYALQAE”, with “not soluble”; and “MAHHHHHHMLKVSSKEHYAEIKKKAEDSLGLVVHFSATWCEPCTAVNEHLTKQAAEYGDNVVFAEVDCGELGDVCEAEGVESVPFVAYFRTPLVGDDRRVERVADVAGAKFDQIDMNTHSLFGEKGGNRGSAEGLCHSGRLPALPHEAARGRNVHHRHPISSALRLYWSAV”, with “not soluble”.

As for “MGSDKIHHHHHHMKKIFKSIANSANCLADVLFPPHCLVCDSGLVLGETDVCSTCLSTLPTVNDDYSPDSLYLRLSIELRPSFVWAYLLFDSKNKTQKILHAIKYGDAPDIAVRLAMIWTDRIRESLVEADVDLIMPIPLHKSKLRKRGYNQATKIAEGIQKIVPIPIEESVLIRKRNLFIQAKSKRAKRFENVKQVYAIQHIEKVAGKHILLVDDVLTTGATLEACGLLLKNAGAAKVSVALLAMVAD”, the “soluble on expression in E. coli” value was “not soluble”. Then “GPGSMPQPSALQSARSFLGTVAEDSVRCDRGLDSVPHNEAGLRCLAADGNWSAVAELAERLSAAATEETAEGLSRRLQFILVQVTANFHMQRYNVAKKLVESLGDLNSERYIDPKTSESTVPFSLRFISAIIPLYIGTKMDSQQRLYALLRDCRENLGKYASAVWVARIKRVQRALVVSHYQVEQYSEALRIYNELIAVEGNADGDDMGSYALLRRMLHLHQFAALALFCGNASFANSIYQSIASINVSEAAPCVQNFHECLVDFNTGIWLSFNGKVQDSMKVFCDVATKSREYYCALGASQLMSTDVPTVSNRQLKFVADGCDALALSELCRHAFHQLLVNATTSHVVTMPYEALRGKAPATMLGGTIRTMEDYLRNDPAGLLSSDAFISNGVRLYTLEGGTQMRRLELLNDLIEVFRCDRASAPPIDKIV”, with “not soluble”; and “MGSDKIHHHHHHCSCNDLLDEKAYDFVSPEQLGDSESAASQLVTGAYNTVITSFIAPGSYLYLTNMDCDYASGASWAFGNVGAGNPQGFWGIDHMWQGSYTLIHRANLGISKISAMSNLSQESKQDALAQLCFLKAWAYFNLVRNYGPVPIFRKSISEGEAMSQPRASVSDVYAHIIELLEQAEGMYSKDDAGFVVGHASNGAAKALLAKVYVTMASGAMSGVPIVVKGGNPNIFEPQPITHIAKTVAGYESFDPAKYYALARDKAWEVINEYTLFDNYMDVWAIGNRNKGEHIWMAQAISGDKDFGNTICQDYVGIFKEDGTMEGNWYGMRDHWYLLFEEQDKRIVDGVIHRYASDGISNGKVIYNYYPRWYADKVENKEVYDSQGNAFDGTEVYHEGQGWTLAKLTKFTFVTDRKQKNSDFHFPLLRLPDIMLIYAEAVNELNGGPDAEAYNQVNRIRTRAHATPFSGMNQDEFRSAVLEERARELAYEADRRYDLFRWGIYLDVMNAIDMDEHNVTKRRLERNLLYPIPTSEVNSNDKIDSNNPGW”, with “not soluble”. The entry for “MQFLHILLLSILSLIFISSVQAVPSDQDIEALMGLQDQVNAFLGESNMSPEAKKKIEDMMAKKQAAIENSLGRK” is “soluble”; for “MTSIDVTEIIKSSTSSLYQPARKKSRFDDSASSSSQAGQPKPEDILAALEADQSNYVALDDVQVKKLVIQLDKKMRLNREQRVKNPDDAQKFMESEIELDKAIQEMHSLASQPDLYGSFVEVNGVEILLQLLGHENTDIVCATLSLLRELTDDDVMNEGEDGAAELIESLVSGSIITTLLACVERLDESVKDEADGVHNALGVVDNMIGFRDDITEECVKHGFTVWLLKRCFQKGAFDANKMYASELLSVILQTSDTAKAKLTEKIDGIDILLRTIAVYKKNDPANVDEREYMENLFNSLCAALMHPANRKKFLDGEGLQLMNLMLREKKQARQSALKVLNHATSGDEGIENCNKLVEMLGLRTIFPLFMRTPSKTKRKDTTPDEHEEHVCTILSSLLAACSENHRQRIVQKFVEHEHEKVDRAVELFLKYKEKVQRFELKKKRQSQEAGTSEDDDPDRAYLDKLDNGLYTLQRLTLILGEVAVGVESARLREEKLFQMKMSQNRLDLMLCPIIQEYSDNLGDDANIEQERVLVMLSKIEDFYK” it is “not soluble”; for “MKLTIIRLQHFSDQDRIDLGKIWPSQDLSTLTLDENHRLYAAHFNERLLGAVRVTLRGVEGELSDLCVREVTRRRGVGQYLVEETLRDNPAINSWRVADHGVEDRGVMAAFMQALGFSAQQ” it is “not soluble”.

Turning to “MAASITAITVENLEYPAVVTSPVTGKSYFLGGAGERGLTIEGNFIKFTAIGVYLEDIAVASLAAKWKGKSSEELLETLDFYRDIISGPFEKLIRGSKIRELSGPEYSRKVMENCVAHLKSVGTYGDAEAEAMQKFAEAFKPVNFPPGASVFYRQSPDGILGLSFSPDTSIPEKEAALIENKAVSSAVLETMIGEHAVSPDLKRCLAARLPALLNEGAFKIGN”, the “soluble on expression in E. coli” value is recorded as “soluble”. Consider “MAHHHHHHMDPKEFVQRFPKSALSAKLVLSLEITEQRDFVVSLIDDAVYCDSWEAYFDFAERNNVAITEDVALAAVQAVGLDPLSAPLWVRAAACCESVESRKSLYEFGLSVPLHGWQRLFEEYRRCTDGHEDDHVLSETECWCVSNVLTAEKWPDRYAKLDTDTEAENVRQAWLELFACMLAGLASTAIARDLQLRRMELAMRQMCTQLPGDDSCWYQLALFQLCILEDAEAARKTVACGIAAAGSSFALENIASVADGVVGVSDSSGTSSADVLSATKALMQQRRAAEELALDGVTKDRVRALRSVGKAAAQQGLGDWKIFSQWRCAEDMAAHDTKMAAKVLENGMICCSHSPADALLLGSEAAQYHLLQRHEREALGYAEQQIEQQAELHHRGKILASWNSLVRIENLLGLSFSKAAKRRAELFPQNRISTFMENCRVGDYLPCDKSTFQWARFVEDYQVDKASVEETPFHGIAPPRNEAVAVKRLQQVECETPDDSQWEPFVPPLSCLPSREEENPDDVTGVRELRGKLVYRVKMDARTAARCQREKATRQRSMTGEKAVERGGALGALVRRVRPVNLTVGQTKRLQSVSADWVVHVLTVSELDLERTLKERAERQESHDMSV”, for which the “soluble on expression in E. coli” value is reported as “not soluble”.
